One block for each molecule: values may come before it.
Legend:
[1] = tested on: T1, CCC(=O)C(=O)O; assay: purified protein; type: biochemical, Candidatus Bathyarchaeota archaeon; settings: reductive amination, 0.5 mM NADH, 0.5 M NH4Cl, pH 10.5, 25 °C
T1 construct: full-length, codon-optimised, pET-28a(+) NdeI/XhoI, N- and C-terminal 6xHis tags, E. coli BL21 (DE3), Ni-NTA purified

[2] = tested on: T2, CC(=O)C(=O)O; assay: purified protein; type: biochemical, Candidatus Bathyarchaeota archaeon; settings: reductive amination, 0.5 mM NADH, 0.5 M NH4Cl, pH 10.5, 25 °C
T2 construct: full-length, codon-optimised, pET-28a(+) NdeI/XhoI, N- and C-terminal 6xHis tags, E. coli BL21 (DE3), Ni-NTA purified

[3] = tested on: T3, CCCC(=O)C(=O)O; assay: purified protein; type: biochemical, Candidatus Bathyarchaeota archaeon; settings: reductive amination, 0.5 mM NADH, 0.5 M NH4Cl, pH 10.5, 25 °C
T3 construct: full-length, codon-optimised, pET-28a(+) NdeI/XhoI, N- and C-terminal 6xHis tags, E. coli BL21 (DE3), Ni-NTA purified

[4] = target: T4, AfAlaDH (Archaeoglobus fulgidus, UniProt O28608); assay: NADH consumption at […] nm, Michaelis-Menten fit; type: biochemical; settings: reductive amination; 0.5 mM NADH, 0.5 M NH4Cl, pH 9.5, 25 °C; read-out: Pyruvate / KM
T4 construct: gene ala; full-length, codon-optimised, pET-28a(+) NdeI/XhoI, N- and C-terminal 6xHis tags, E. coli BL21 (DE3), Ni-NTA purified
T4 sequence (O28608 1-322): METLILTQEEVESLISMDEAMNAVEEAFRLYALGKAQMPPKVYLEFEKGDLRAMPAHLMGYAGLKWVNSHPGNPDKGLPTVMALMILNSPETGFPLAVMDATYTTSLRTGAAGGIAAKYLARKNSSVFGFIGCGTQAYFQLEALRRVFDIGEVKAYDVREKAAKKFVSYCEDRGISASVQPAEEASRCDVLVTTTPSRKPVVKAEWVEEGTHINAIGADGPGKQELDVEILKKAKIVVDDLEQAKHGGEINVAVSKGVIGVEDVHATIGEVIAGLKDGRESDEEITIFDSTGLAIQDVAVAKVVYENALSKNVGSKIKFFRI

[5] = substrate: CC(=O)C(=O)O; assay: purified protein; type: biochemical, Thermus thermophilus; settings: reductive amination, 0.5 mM NADH, 0.5 M NH4Cl, pH 8.5, 25 °C
[6] = substrate: CCCC(=O)C(=O)O; assay: purified protein; type: biochemical, Thermus thermophilus; settings: reductive amination, 0.5 mM NADH, 0.5 M NH4Cl, pH 8.5, 25 °C
[7] = substrate: CCCCC(=O)C(=O)O; assay: purified protein; type: biochemical, Thermus thermophilus; settings: reductive amination, 0.5 mM NADH, 0.5 M NH4Cl, pH 8.5, 25 °C
[8] = substrate: CCC(=O)C(=O)O; assay: purified protein; type: biochemical, Thermus thermophilus; settings: reductive amination, 0.5 mM NADH, 0.5 M NH4Cl, pH 8.5, 25 °C
[9] = substrate: CCCC(=O)C(=O)O; assay: purified protein; type: biochemical, Archaeoglobus fulgidus; settings: reductive amination, 0.5 mM NADH, 0.5 M NH4Cl, pH 9.5, 25 °C
[10] = substrate: CCC(=O)C(=O)O; assay: purified protein; type: biochemical, Archaeoglobus fulgidus; settings: reductive amination, 0.5 mM NADH, 0.5 M NH4Cl, pH 9.5, 25 °C
[11] = substrate: CC(=O)C(=O)O; assay: purified protein; type: biochemical, Ammoniphilus sp. CFH 90114; settings: reductive amination, 0.5 mM NADH, 0.5 M NH4Cl, pH 10.5, 25 °C
[12] = substrate: CCCC(=O)C(=O)O; assay: purified protein; type: biochemical, Ammoniphilus sp. CFH 90114; settings: reductive amination, 0.5 mM NADH, 0.5 M NH4Cl, pH 10.5, 25 °C
[13] = substrate: CCC(=O)C(=O)O; assay: purified protein; type: biochemical, Ammoniphilus sp. CFH 90114; settings: reductive amination, 0.5 mM NADH, 0.5 M NH4Cl, pH 10.5, 25 °C
[14] = substrate: CC(=O)C(=O)O; assay: purified protein; type: biochemical, Melghiribacillus thermohalophilus; settings: reductive amination, 0.5 mM NADH, 0.5 M NH4Cl, pH 9.5, 25 °C
[15] = substrate: CCCC(=O)C(=O)O; assay: purified protein; type: biochemical, Melghiribacillus thermohalophilus; settings: reductive amination, 0.5 mM NADH, 0.5 M NH4Cl, pH 9.5, 25 °C
[16] = substrate: CCC(=O)C(=O)O; assay: purified protein; type: biochemical, Melghiribacillus thermohalophilus; settings: reductive amination, 0.5 mM NADH, 0.5 M NH4Cl, pH 9.5, 25 °C

Molecule: CbAlaDH (Candidatus Bathyarchaeota archaeon)
Km [1]: 2200 ± 1000 µM
kcat [1]: 0.7 ± 0.2 s⁻¹
kcat/Km [1]: 300 ± 200 M⁻¹ s⁻¹
Km [2]: 400 ± 0 µM
kcat [2]: 0.5 ± 0.1 s⁻¹
kcat/Km [2]: 1300 ± 100 M⁻¹ s⁻¹
Km [3]: 800 ± 0 µM
kcat [3]: 0.17 ± 0.1 s⁻¹
kcat/Km [3]: 210 ± 100 M⁻¹ s⁻¹

Km [4]: 200 ± 100 µM
Molecule: CC(=O)C(=O)O [pyruvate]

B1: TtAlaDH (Thermus thermophilus HB8) (protein)
chain: MVIGVPKEIKTLENRVALTPGGVESLVRRGHTVLVERGAGEGSGLSDAEYARAGAELVGREEAWGAEMVVKVKEPLPEEYGFLREGLILFTYLHLAADRGLTEAMLRSGVTGIAYETVQLPDGTLPLLVPMSEVAGRMAPQVGAQFLEKPKGGRGVLLGGVPGVAPASVVILGGGTVGTNAAKIALGMGAQVTILDVNHKRLQYLDDVFGGRVITLTATEANIKKSVQHADLLIGAVLVPGAKAPKLVTRDMLSLMKEGAVIVDVAVDQGGCVETIRPTTHAEPTYVVDGVVHYGVANMPGAVPRTSTFALTNQTLPYVLKLAEKGLDALLEDAALLKGLNTHKGRLTHPGVAEAFGLPYTPPEEALRG
notes: full-length, codon-optimised, pET-28a(+) NdeI/XhoI, N- and C-terminal 6xHis tags, E. coli BL21 (DE3), Ni-NTA purified
Km [5]: 630 ± 200 µM
kcat [5]: 87 ± 5.1 s⁻¹
kcat/Km [5]: 138000 ± 15700 M⁻¹ s⁻¹
Km [6]: 3300 ± 1100 µM
kcat [6]: 1.2 s⁻¹
kcat/Km [6]: 400 M⁻¹ s⁻¹
Km [7]: 400 µM
Km [8]: 400 ± 100 µM
kcat [8]: 1.1 s⁻¹
kcat/Km [8]: 3000 ± 700 M⁻¹ s⁻¹

B2: AfAlaDH (Archaeoglobus fulgidus DSM 4304) (protein)
chain: METLILTQEEVESLISMDEAMNAVEEAFRLYALGKAQMPPKVYLEFEKGDLRAMPAHLMGYAGLKWVNSHPGNPDKGLPTVMALMILNSPETGFPLAVMDATYTTSLRTGAAGGIAAKYLARKNSSVFGFIGCGTQAYFQLEALRRVFDIGEVKAYDVREKAAKKFVSYCEDRGISASVQPAEEASRCDVLVTTTPSRKPVVKAEWVEEGTHINAIGADGPGKQELDVEILKKAKIVVDDLEQAKHGGEINVAVSKGVIGVEDVHATIGEVIAGLKDGRESDEEITIFDSTGLAIQDVAVAKVVYENALSKNVGSKIKFFRI
notes: as for B1
Km [9]: 300 ± 0 µM
kcat [9]: 0.9 ± 0.2 s⁻¹
kcat/Km [9]: 2700 ± 300 M⁻¹ s⁻¹
Km [10]: 200 ± 0 µM
kcat [10]: 7.5 ± 0.1 s⁻¹
kcat/Km [10]: 34000 ± 100 M⁻¹ s⁻¹

B3: AcfhAlaDH (Ammoniphilus sp. CFH 90114) (protein)
chain: MIIGVPKEIKNNENRVGLTPAGVTAFKNNGHDVWVETNAGMGSGFTDEDYTAAGAKIVDSASVVWSAEMVVKVKEPLPEEYTYFREGLILYTYLHLAPEPELTKALVEKKVIAIAYETIQADNGSLPLLTPMSEVAGRMSIQIGAQFLEKSKGGKGVLLGGVPGVAPGEVVIVGGGIVGTNAAKMALGLGASVTLLDISADRLRQLDDMFQGRLKTLMSNSYNIAEAVKKADLVVGAVLIPGARAPRLVTEEMVKTMQPGSVIVDVAIDQGGSIETIDRITTHDNPTYVKHGVLHYAVANMPGAVARTSTIALTNVTVPYGVQIANKGWKQAALDNKALAKGINVVDGKVTYKAVAEAHGYTPVAVETVLTGQNVGV
notes: as for B1
Km [11]: 700 ± 200 µM
kcat [11]: 112 ± 6.6 s⁻¹
kcat/Km [11]: 148000 ± 13500 M⁻¹ s⁻¹
Km [12]: 5200 ± 800 µM
kcat [12]: 1 s⁻¹
kcat/Km [12]: 200 M⁻¹ s⁻¹
Km [13]: 1300 ± 400 µM
kcat [13]: 5.4 ± 0.5 s⁻¹
kcat/Km [13]: 4000 ± 1400 M⁻¹ s⁻¹

B4: MetAlaDH (Melghiribacillus thermohalophilus) (protein)
chain: MKIGVPKEIKNNENRVALTPAGVMTLKKAGHEVFIETGAGLGSGFTDEQYTEAGAQIVTTAKEAWSQEMVMKVKEPLPEEYDYFYEGLILFTYLHLAAEPELTKALIEKKVVGIAYETVQLDNGSLPLLTPMSEVAGRMATQIGAQFLEKPHGGKGILLGGIPGVRRGKVTIIGGGVVGTNAAKIAVGLGADVTIVDLNPDRLRELDDIFGSSINTLMSNSLNIAEAVKESDLVIGAVLIPGAKAPKLVTEDMVKEMKKGSVIVDVAIDQGGIVETSDRITTHDNPTYEKHGVVHYAVANMPGAVPRTSTIGLTNVTVPYAVQLANKGYKQACLDHAALKKGINTLNGYVTYQAVAEAHGLEYENVDLLLK
notes: as for B1
Km [14]: 1300 ± 400 µM
kcat [14]: 140 ± 19.7 s⁻¹
kcat/Km [14]: 108000 ± 12000 M⁻¹ s⁻¹
Km [15]: 1900 ± 0 µM
kcat [15]: 0.7 s⁻¹
kcat/Km [15]: 400 M⁻¹ s⁻¹
Km [16]: 3800 ± 1200 µM
kcat [16]: 3.3 s⁻¹
kcat/Km [16]: 800 M⁻¹ s⁻¹

Source: publication PMC10923667, “Cloning and expression heterologous alanine dehydrogenase genes: Investigation of reductive amination potential of L-alanine dehydrogenases for green synthesis of alanine derivatives” (Heliyon, 2024)
